Paper PMC4091980

How the values were obtained:
[1] = target: PH domain of PDK1 (UniProt O15530); assay: SPR
[2] = target: PH domain of AKT (UniProt P31749); assay: SPR

UniProt O15530, sequence (O15530 459-550): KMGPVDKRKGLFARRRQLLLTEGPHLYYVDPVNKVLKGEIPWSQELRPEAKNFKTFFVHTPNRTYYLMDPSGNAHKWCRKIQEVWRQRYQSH

“PH domain of AKT (from UniProt P31749 5-108) (domain or fragment)” gave a Kd [1] of 49.8 nM and a Kd [2] of 37.6 nM.
